From patent US8513182B2, “Natural polypeptides for oral health care” (priority 2007, dated 2013)

Tested on: Streptococcus mutans
Experiment: activity of full length lactoferrin variants expressed in insect cells against S. mutans
Type: cell-based
Conditions: Lf variant expressed in an insect vector
From the text: Caries is the single most common chronic childhood disease, five times more common than asthma. Over 70% of children […] have cavities. Over 108 million Americans lack dental health insurance so that treatment of this infection is lacking. S. mutans is considered one of the microbes most associated with dental decay.
Lactoferrin (Lf) is a multifunctional protein that is found in mammary secretion, tears and saliva and in the gastrointestinal tract. Its main function is to sequester iron from its surroundings to prevent oral microbes from attaining iron, a mineral necessary for survival. In addition, in its N-terminus, Lf has a region that has antimicrobial properties. This region is called the defensin region and it has been shown since 1980's that Lf can kill many types of bacteria including oral bacteria. It was also shown that within that N-terminus region, from amino acid position 11 to 31, at least two polymorphic forms exist. For the most part variation in this defensin region at amino acid position 29 can either contain arginine or lysine. […] Further we then determined that pure lactoferrin would have limited usefulness in the oral cavity unless it was linked to something that would allow it to bind to the tooth surface. […]

B1: arginine variant: more common Lf variant with arginine at position 29, expressed in an insect vector (protein, UniProt P02788 20-710, looked up)
Lactotransferrin: GRRRSVQWCAVSQPEATKCFQWQRNMRKVRGPPVSCIKRDSPIQCIQAIAENRADAVTLDGGFIYEAGLAPYKLRPVAAEVYGTERQPRTHYYAVAVVKKGGSFQLNELQGLKSCHTGLRRTAGWNVPIGTLRPFLNWTGPPEPIEAAVARFFSASCVPGADKGQFPNLCRLCAGTGENKCAFSSQEPYFSYSGAFKCLRDGAGDVAFIRESTVFEDLSDEAERDEYELLCPDNTRKPVDKFKDCHLARVPSHAVVARSVNGKEDAIWNLLRQAQEKFGKDKSPKFQLFGSPSGQKDLLFKDSAIGFSRVPPRIDSGLYLGSGYFTAIQNLRKSEEEVAARRARVVWCAVGEQELRKCNQWSGLSEGSVTCSSASTTEDCIALVLKGEADAMSLDGGYVYTAGKCGLVPVLAENYKSQQSSDPDPNCVDRPVEGYLAVAVVRRSDTSLTWNSVKGKKSCHTAVDRTAGWNIPMGLLFNQTGSCKFDEYFSQSCAPGSDPRSNLCALCIGDEQGENKCVPNSNERYYGYTGAFRCLAENAGDVAFVKDVTVLQNTDGNNNEAWAKDLKLADFALLCLDGKRKPVTEARSCHLAMAPNHAVVSRMDKVERLKQVLLHQQAKFGRNGSDCPDKFCLFQSETKNLLFNDNTECLARLHGKTTYEKYLGPQYVAGITNLKKCSTSPLLEACEFLRK
In the case of B1, the “killing / survival of S. mutans” value is reported as “little to no effect”.
